How the values were obtained:
Format in all cases: cell-based
Campylobacter jejuni = experiment: Spot test (halo zone); design: key: ‘◯’ means production of the halo zone; conditions: C. jejuni KCTC 5327
Description: (§1) In the present example, in order to investigate a target bacteria spectrum of the bacteriophage PBPA90 selected in the Examples 1.1 and 1.2 and endolysin LNT101 separated and purifying in the Example 1.3, the antibacterial activity against gram negative bacterium such as Pseudomonas aeruginosa ATCC13388, ATCC9027, ATCC10145, ATCC15692, ATCC15522, ATCC25619, ATCC27853, CCARM2134, CCARM2200, CCARM2029, CCARM2144, CCARM2298, CCARM2326, PR01957, E. coli ATCC8739, Enterobacter cloacae CCARM0252, Klebsiella pneumoniae KCTC2261, Klebsiella aerogenes CCARM16006, Campylobacter jejuni KCTC5327, Cronobacter sakazakii KCTC2949, Salmonella typhimurium ATCC14028, Salmonella enteritidis ATCC13076 was tested.
(§2) The target bacteria spectrum of the bacteriophage PBPA90 and endolysin LNT101 was confirmed by a spot test. For the spot test, bacterium sterilized in 4 ml top agar (1% Tryptone, 0.5% Yeast extract, 0.5% NaCl, 0.7% agar) of 1×10^11 CFU/200 μl were added and poured to a LB plate. After hardening the top agar, the bacteriophage PBPA90 10 μl (1×10^8 PFU/ml) or LNT101 10 μl (2 mg/ml) was spotted, and it was incubated at 37° C. for 18 hours.

Cronobacter sakazakii = experiment: Spot test (halo zone); design: key: ‘◯’ means production of the halo zone; conditions: C. sakazakii KCTC 2949
Description: as §1, §2

E. coli = experiment: Spot test (halo zone); design: key: ‘◯’ means production of the halo zone; conditions: E. coli ATCC 8739
Description: as §1, §2

Enterobacter cloacae = experiment: Spot test (halo zone); design: key: ‘◯’ means production of the halo zone; conditions: E. cloacae CCARM 0252
Description: as §1, §2

Klebsiella aerogenes = experiment: Spot test (halo zone); design: key: ‘◯’ means production of the halo zone; conditions: K. aerugenes CCARM 16006
Description: as §1, §2

Klebsiella pneumoniae = experiment: Spot test (halo zone); design: key: ‘◯’ means production of the halo zone; conditions: K. pneumoniae KCTC 2261
Description: as §1, §2

Pseudomonas aeruginosa = experiment: Spot test (halo zone); design: key: ‘◯’ means production of the halo zone
Description: as §1, §2

Salmonella enteritidis = experiment: Spot test (halo zone); design: key: ‘◯’ means production of the halo zone; conditions: S. enteritidis ATCC 13076
Description: as §1, §2

Salmonella typhimurium = experiment: Spot test (halo zone); design: key: ‘◯’ means production of the halo zone; conditions: S. typhimurium ATCC 14028
Description: as §1, §2

A. baumannii = experiment: MIC and MBC, broth microdilution in CAA media
Procedure: (§3) In addition, MIC (Minimal Inhibitory Concentration) and MBC (Minimal Bactericidal Concentration) of the fusion polypeptide LNT103 were measured. […] Specifically, the LNT103 was treated at a concentration of 64 μg/ml to a 96 well microplate row A, and the LNT103 was treated at a concentration where serial dilution was performed by ½ in rows B-G. To the row H, LNT103 was not treated. After that, the corresponding bacterium strain (type or QC, CCARM and clinical separation strain; See Tables 2-4) was treated in an amount of 5×10^5 CFU/ml, total 100 μl in all wells. Then, it was cultured at 37° C. for 18 hours. MIC was determined to be the lowest concentration at which no colonies were identified by confirming the number of the colonies in each well.

P. aeruginosa = experiment: MIC and MBC, broth microdilution in CAA media
Procedure: as §3

[1] = A. baumannii 643(Kyungpook National University)
[2] = A. baumannii 3680(Gyeongsang National University)

B1: LNT101: endolysin derived from bacteriophage PBPA90, amino acid sequence SEQ ID NO: 1 (259 aa), purified with 6× His tag (protein)
chain: MGTVLKRGDRGSAVEDLQMKLRVAGYAVSADGIFGGDTEKAVRDFQASKALVVDGKVGPATLAELAKSATVPAKWEAIPFPTANKSRSAAMPTLNAVGAMTGTDSRLLATFASIESAFDYTVKASTSSATGWFQFLDATWDDMIKAHGSKYGIPKDPTRALRKDPRANALMGAEFLKGNAAVLRPVINREPSDTDLYLAHFLGAGGAKKFLSADQKTLGEVLFPKPAKANPSIFSNKGVPRTLAEIYKLFEDKVSKHRA
modifications: 6xHis tag; synthetic_Endolysin LNT101
With B1 the “production of the halo zone” value (Campylobacter jejuni) was “◯”, the “production of the halo zone” value (Cronobacter sakazakii) was “◯” and the “production of the halo zone” value (E. coli) was “◯”. The “production of the halo zone” value (Enterobacter cloacae) was “◯”, the “production of the halo zone” value (Klebsiella aerogenes) was “◯” and the “production of the halo zone” value (Klebsiella pneumoniae) was “◯”. The “production of the halo zone” value (Pseudomonas aeruginosa; P. aeruginosa ATCC 9027) was “◯”, the “production of the halo zone” value (Pseudomonas aeruginosa; P. aeruginosa ATCC 10145) was “◯” and the “production of the halo zone” value (Pseudomonas aeruginosa; P. aeruginosa ATCC 13388, 10 μl (2 mg/ml), 37° C. 18 hours) was “◯”. For the same molecule, the “production of the halo zone” value (Pseudomonas aeruginosa; P. aeruginosa ATCC 15522) was “◯”, the “production of the halo zone” value (Pseudomonas aeruginosa; P. aeruginosa ATCC 15692) was “◯” and the “production of the halo zone” value (Pseudomonas aeruginosa; P. aeruginosa ATCC 25619) was “◯”. The “production of the halo zone” value (Pseudomonas aeruginosa; P. aeruginosa ATCC 27853) was “◯”, the “production of the halo zone” value (Pseudomonas aeruginosa; P. aeruginosa CCARM 2029) was “◯” and the “production of the halo zone” value (Pseudomonas aeruginosa; P. aeruginosa CCARM 2134) was “◯”. The “production of the halo zone” value (Pseudomonas aeruginosa; P. aeruginosa CCARM 2144) was “◯”, the “production of the halo zone” value (Pseudomonas aeruginosa; P. aeruginosa CCARM 2200) was “◯” and the “production of the halo zone” value (Pseudomonas aeruginosa; P. aeruginosa CCARM 2298) was “◯”. The “production of the halo zone” value (Pseudomonas aeruginosa; P. aeruginosa CCARM 2326) was “◯”, the “production of the halo zone” value (Pseudomonas aeruginosa; P. aeruginosa PR1957) was “◯” and the “production of the halo zone” value (Salmonella enteritidis) was “◯”. For the same molecule, the “production of the halo zone” value (Salmonella typhimurium) was “◯”.

B2: LNT103: fusion polypeptide [Cecropin A]-[linker (GSGSGS)]-[endolysin LNT102]; SEQ ID NO: 15 (MAS, His tag) used in the tests (protein)
chain: MASKWKLFKKIEKVGQNIRDGIIKAGPAVAVVGQATQIAKGSGSGSMGTVLKRGDRGSAVEDLQMKLNVAGYNLSADGIFGGDTEKAVRDVQAGAGLVVDGKVGPKTLYAIAKSATVPAKWEAIPFPTANKSRSAAMPTLNAVGAMTGVDSRLLATFASIESAFDYTVKAKTSSATGWFQFLDATWDDMIKAYGSKYGIPKDPTRALRKDPRANALMGAEFIKGNAAVLRPVINREPSDTDLYLAHFLGAGGAKKFLSADQKTLGEVLFPKPAKANPSIFSNKGVPRTLAEIYKLFEDKVSKHRALEHHHHHH
modifications: synthetic_Fusion Polypeptide LNT103 with MAS, His tag, and extra sequence
B2 showed an MBC (A. baumannii; [1]) of 16 µg/mL, an MIC (A. baumannii; [1]) of 8 µg/mL and an MBC (A. baumannii; [2]) of 8 µg/mL. The MIC (A. baumannii; [2]) was 8 µg/mL, the MBC (A. baumannii; A. baumannii ATCC 17978) was 8 µg/mL and the MIC (A. baumannii; A. baumannii ATCC 17978) was 8 µg/mL. It also gave an MBC (A. baumannii; A. baumannii ATCT 19606) of 8 µg/mL, an MIC (A. baumannii; A. baumannii ATCT 19606) of 8 µg/mL and an MBC (A. baumannii; A. baumannii CCARM 12001) of 8 µg/mL. It also gave an MIC (A. baumannii; A. baumannii CCARM 12001) of 8 µg/mL, an MBC (A. baumannii; A. baumannii CCARM 12015) of 16 µg/mL and an MIC (A. baumannii; A. baumannii CCARM 12015) of 16 µg/mL. It also gave an MBC (A. baumannii; A. baumannii CCARM 12026) of 8 µg/mL, an MIC (A. baumannii; A. baumannii CCARM 12026) of 8 µg/mL and an MBC (A. baumannii; A. baumannii CCARM 12035) of 8 µg/mL. The MIC (A. baumannii; A. baumannii CCARM 12035) was 8 µg/mL, the MBC (A. baumannii; A. baumannii CCARM 12202) was 8 µg/mL and the MIC (A. baumannii; A. baumannii CCARM 12202) was 8 µg/mL. The MBC (A. baumannii; A. baumannii F4) was 16 µg/mL, the MIC (A. baumannii; A. baumannii F4) was 16 µg/mL and the MBC (A. baumannii; A. baumannii F15) was 8 µg/mL. It also gave an MIC (A. baumannii; A. baumannii F15) of 8 µg/mL, an MBC (A. baumannii; A. baumannii F65) of 4 µg/mL and an MIC (A. baumannii; A. baumannii F65) of 4 µg/mL. It also gave an MBC (A. baumannii; A. baumannii F66) of 4 µg/mL, an MIC (A. baumannii; A. baumannii F66) of 4 µg/mL and an MBC (A. baumannii; A. baumannii F67) of 8 µg/mL. For the same molecule, the MIC (A. baumannii; A. baumannii F67) was 8 µg/mL, the MBC (A. baumannii; A. baumannii F68) was 4 µg/mL and the MIC (A. baumannii; A. baumannii F68) was 4 µg/mL. For the same molecule, the MBC (A. baumannii; A. baumannii F69) was 8 µg/mL, the MIC (A. baumannii; A. baumannii F69) was 8 µg/mL and the MBC (A. baumannii; A. baumannii F70) was 16 µg/mL. For the same molecule, the MIC (A. baumannii; A. baumannii F70) was 16 µg/mL, the MBC (A. baumannii; A. baumannii F71) was 8 µg/mL and the MIC (A. baumannii; A. baumannii F71) was 8 µg/mL. The MBC (A. baumannii; A. baumannii KACC 13090) was 8 µg/mL, the MIC (A. baumannii; A. baumannii KACC 13090) was 8 µg/mL and the MBC (A. baumannii; A. baumannii KACC 14233) was 8 µg/mL. The MIC (A. baumannii; A. baumannii KACC 14233) was 8 µg/mL, the MBC (P. aeruginosa; P. aeruginosa ATCC 9027) was 16 µg/mL and the MIC (P. aeruginosa; P. aeruginosa ATCC 9027) was 16 µg/mL. It also gave an MBC (P. aeruginosa; P. aeruginosa ATCC 10145) of 32 µg/mL, an MIC (P. aeruginosa; P. aeruginosa ATCC 10145) of 16 µg/mL and an MBC (P. aeruginosa; P. aeruginosa ATCC 15522) of 16 µg/mL. It also gave an MIC (P. aeruginosa; P. aeruginosa ATCC 15522) of 16 µg/mL, an MBC (P. aeruginosa; P. aeruginosa ATCT 13388) of 16 µg/mL and an MIC (P. aeruginosa; P. aeruginosa ATCT 13388) of 8 µg/mL. It also gave an MBC (P. aeruginosa; P. aeruginosa CCARM 2134) of 16 µg/mL, an MIC (P. aeruginosa; P. aeruginosa CCARM 2134) of 8 µg/mL and an MBC (P. aeruginosa; P. aeruginosa CCARM 2144) of 32 µg/mL. It also gave an MIC (P. aeruginosa; P. aeruginosa CCARM 2144) of 32 µg/mL, an MBC (P. aeruginosa; P. aeruginosa F102) of 8 µg/mL and an MIC (P. aeruginosa; P. aeruginosa F102) of 8 µg/mL. The MBC (P. aeruginosa; P. aeruginosa F141) was 8 µg/mL, the MIC (P. aeruginosa; P. aeruginosa F141) was 8 µg/mL and the MBC (P. aeruginosa; P. aeruginosa F265) was 16 µg/mL. For the same molecule, the MIC (P. aeruginosa; P. aeruginosa F265) was 16 µg/mL, the MBC (P. aeruginosa; P. aeruginosa F341) was 8 µg/mL and the MIC (P. aeruginosa; P. aeruginosa F341) was 8 µg/mL. The MBC (P. aeruginosa; P. aeruginosa F388) was 8 µg/mL, the MIC (P. aeruginosa; P. aeruginosa F388) was 8 µg/mL and the MBC (P. aeruginosa; P. aeruginosa PAO1(ATCC 15692)) was 16 µg/mL. The MIC (P. aeruginosa; P. aeruginosa PAO1(ATCC 15692)) was 8 µg/mL.

Reference: patent publication US11807881B2, “Polypeptide, fusion polypeptide, and antibiotic against gram-negative bacteria comprising same” (priority 2020, dated 2023)
